For 2 molecules, koff and Kd results are on record in doi:10.1101/2022.02.18.481027, “Structural insights into the assembly and activation of IL-27 signalling complex” (bioRxiv, 2022).

For assay [1], the target named is T1, Murine IL-27Rα ectodomain (amino acids 28-224), N-terminally biotinylated (murine, UniProt O70394 28-224, N-terminal biotin (EZ-Link Sulfo-NHS-SS-Biotin, at pH 6.5)).
T1 chain: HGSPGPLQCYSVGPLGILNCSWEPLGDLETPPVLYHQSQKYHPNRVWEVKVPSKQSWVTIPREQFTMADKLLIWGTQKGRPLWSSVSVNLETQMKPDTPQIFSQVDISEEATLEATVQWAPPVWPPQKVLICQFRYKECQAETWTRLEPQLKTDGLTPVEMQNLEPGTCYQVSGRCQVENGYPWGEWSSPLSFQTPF
The assay is described as follows: SPR. A general note: Surface plasmon resonance follows binding to a sensor surface in real time, without labels.

Assay [2] addresses T2, Murine GP130 ectodomain with C-terminal biotin acceptor peptide, biotinylated (murine, UniProt Q00560 23-319, biotin on the biotin acceptor peptide (BirA ligase)).
T2 chain: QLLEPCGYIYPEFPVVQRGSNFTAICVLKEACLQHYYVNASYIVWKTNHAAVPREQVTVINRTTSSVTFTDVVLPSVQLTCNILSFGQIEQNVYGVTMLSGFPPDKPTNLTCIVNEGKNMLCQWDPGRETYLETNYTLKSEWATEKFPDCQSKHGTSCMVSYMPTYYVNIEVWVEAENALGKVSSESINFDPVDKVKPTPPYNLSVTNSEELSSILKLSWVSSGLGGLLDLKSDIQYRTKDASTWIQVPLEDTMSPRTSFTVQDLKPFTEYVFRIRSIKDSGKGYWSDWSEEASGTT
The assay is described as follows: SPR.

For assay [3], the target named is T3, p28 (IL-27p28), recombinant, alone (murine, UniProt Q8K3I6 29-234).
T3 construct: IL-27p28 (p28) without EBI3; the construct is not described; The methods of expression name no p28 construct; source: recombinantly produced
T3 sequence (looked up): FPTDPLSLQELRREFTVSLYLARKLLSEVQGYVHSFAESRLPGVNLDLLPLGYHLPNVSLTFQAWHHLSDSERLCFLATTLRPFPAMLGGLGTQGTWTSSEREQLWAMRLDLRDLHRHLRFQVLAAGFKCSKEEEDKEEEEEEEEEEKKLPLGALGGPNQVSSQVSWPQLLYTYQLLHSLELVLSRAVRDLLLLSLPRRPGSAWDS
The assay is described as follows: SPR; biotinylated IL-27Rα or GP130 immobilised on a streptavidin chip (Series S Sensor SA), p28 flowed over; equilibrium analysis; 10 mM HEPES, 150 mM NaCl, 0.05% TWEEN-20, 0.5% BSA; Biacore T100. The following applies: both partners purified.

B1: Murine IL-27, linker-connected single-chain variant (p28+EBI3) (ligand)
chain 1: YTETALVALSQPRVQCHASRYPVAVDCSWTPLQAPNSTRSTSFIATYRLGVATQQQSQPCLQRSPQASRCTIPDVHLFSTVPYMLNVTAVHPGGASSSLLAFVAERIIKPDPPEGVRLRTAGQRLQVLWHPPASWPFPDIFSLKYRLRYRRRGASHFRQVGPIEATTFTLRNSKPHAKYCIQVSAQDLTDYGKPSDWSLPGQVESAPHKP
chain 2: FPTDPLSLQELRREFTVSLYLARKLLSEVQGYVHSFAESRLPGVNLDLLPLGYHLPNVSLTFQAWHHLSDSERLCFLATTLRPFPAMLGGLGTQGTWTSSEREQLWAMRLDLRDLHRHLRFQVLAAGFKCSKEEEDKEEEEEEEEEEKKLPLGALGGPNQVSSQVSWPQLLYTYQLLHSLELVLSRAVRDLLLLSLPRRPGSAWDS
What is called koff is the rate constant with which the complex falls apart. Consider B1, for which the koff in assay [1] was determined as 0.001 s⁻¹; in assay [2] it was 0.021 s⁻¹.

B2: Murine IL-27Rα ectodomain (amino acids 28-224), N-terminally biotinylated (receptor, UniProt O70394 28-224, looked up)
chain: HGSPGPLQCYSVGPLGILNCSWEPLGDLETPPVLYHQSQKYHPNRVWEVKVPSKQSWVTIPREQFTMADKLLIWGTQKGRPLWSSVSVNLETQMKPDTPQIFSQVDISEEATLEATVQWAPPVWPPQKVLICQFRYKECQAETWTRLEPQLKTDGLTPVEMQNLEPGTCYQVSGRCQVENGYPWGEWSSPLSFQTPF
modifications: N-terminal biotin (EZ-Link Sulfo-NHS-SS-Biotin, at pH 6.5)
notes: murine IL-27Rα, amino acids 28-224; also called biotinylated IL-27Rα; source: baculovirus, Trichoplusia ni (High Five) cells, secreted, purified (Ni-NTA, SEC), biotinylated in vitro
In general, Kd refers to the constant that tells how readily two partners part at equilibrium. On to B2, for which the Kd in assay [3] came out at 2800 nM.
